Numbering of substitutions follows the chain as printed. Blank lines part the entries; values can stand above or below the binder they belong to.
How the values were obtained:
[1] = target: T1, biotinylated goat anti-human kappa light chain; test: ELISA, positive control
T1 construct: positive control of the ELISA
Method in brief: (§1)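 Monoclonal antibodies were first applied to human or mouse ACVR2A, alongside biotinylated goat anti-human kappa light chain (positive control) and human Fc (negative control); binding was then determined by ELISA.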

mouse ACVR2A = target: T2, mouse ACVR2A (mouse, UniProt P27038 20-135, limits assumed); test: ELISA
T2 construct: coated antigen of the initial ELISA
Method in brief: as §1

human ACVR2A [2] = target: T3, human ACVR2A (human, UniProt P27037 20-135, limits assumed); test: ELISA
T3 construct: coated antigen of the initial ELISA; also called activin receptor, type II A
Method in brief: as §1

Goat anti-Human Kappa = target: T4, Goat anti-Human Kappa; test: ELISA, positive control
T4 construct: Positive control of the ELISA; also called biotinylated goat anti-human kappa light chain
Method in brief: as §1

Human ACVR2A [3] = target: T5, Human ACVR2A (human, UniProt P27037 20-135, limits assumed); test: ELISA
T5 construct: also called activin receptor, type II A
Method in brief: as §1
Also: test concentration or dose not given here.

T2 sequence (P27038 20-135 limits assumed): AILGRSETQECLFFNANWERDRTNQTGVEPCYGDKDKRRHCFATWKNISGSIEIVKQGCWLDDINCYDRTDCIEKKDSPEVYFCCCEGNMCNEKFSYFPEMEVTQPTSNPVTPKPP
T3 sequence (P27037 20-135 limits assumed): as the sequence (P27038 20-135 limits assumed) above, with R20K, I73V counted along it
T5 sequence (P27037 20-135 limits assumed): as the sequence (P27038 20-135 limits assumed) above, with R20K, I73V counted along it

optical density [1]: 3.46 OD
optical density (mouse ACVR2A): 3.63 OD
optical density (human ACVR2A [2]): 3.61 OD
B1: 376_C08 (antibody, V domains shown)
VH: EVQLLESGGGLVQPGGSLRLSCAASGFTFDSYSMNWVRQAPGKGLEWVAGINYNSGYTGYADSVKGRFTISRDNSKNTLYLQMNSLRAEDTAVYYCARGANWHDTHLDYWGQGTLVTVSS
VL: not shown
notes: Group III

optical density [1]: 3.41 OD
optical density (mouse ACVR2A): 3.38 OD
optical density (human ACVR2A [2]): 3.3 OD
B2: 376_E02 (antibody, V domains shown)
VH: B1 VH with D30S, S55G, T58K, H106A
VL: DIQMTQSPSSLSASVGDRVTITCRASQSILSYVNWYQQKPGKAPKLVIYAATSRHSGVPSRFSGSGSGTDFTLTISSLQPEDFATYYCQQSDNTPLTFGGGTKVEIK
notes: Group III

optical density [1]: 3.2 OD
optical density (mouse ACVR2A): 3.65 OD
optical density (human ACVR2A [2]): 3.6 OD
B3: 375_F02 (antibody, V domains shown)
VH: B1 VH with D30S, G50S, G59S
VL: B2 VL with V33L, V47L, H55A, D92Y, N93D, T94S
notes: Group III

optical density [1]: 3.1 OD
optical density (mouse ACVR2A): 3.61 OD
optical density (human ACVR2A [2]): 3.3 OD
B4: 375_D01 (antibody, V domains shown)
VH: B1 VH with D30S, A49S, S55G, H106A
VL: B2 VL with S31T, V33L, H55A, D92Y, N93E
notes: Group III

optical density [1]: 3.33 OD
optical density (mouse ACVR2A): 3.67 OD
optical density (human ACVR2A [2]): 3.85 OD
B5: 375_E06 (antibody, V domains shown)
VH: B1 VH with D30S, A49S, S55G, T58K, G59S, H106A
VL: B2 VL with V33L, H55A, D92Y, N93D, T94S
notes: Group III

optical density [1]: 3.47 OD
optical density (mouse ACVR2A): 3.65 OD
optical density (human ACVR2A [2]): 3.68 OD
B6: 376_E11 (antibody, V domains shown)
VH: B1 VH with D30S, A49S, S55G, G59S, H106A
VL: B2 VL with S31T, H55A, D92Y, N93E, T94L
notes: Group III

optical density (Goat anti-Human Kappa): 3.17 OD
optical density (Human ACVR2A [3]): 0.451 OD
B7: 369_A03 (antibody, V domains shown)
VH: B1 VH with D30S, S33G, A49S, G50N, S55G, G99S, H106A
VL: B2 VL with S31T, V33L, V47L, A51V, S91G, D92Y, N93D, T94L

optical density [1]: 3.21 OD
optical density (mouse ACVR2A): 3.45 OD
optical density (human ACVR2A [2]): 3.26 OD
B8: 375_D10 (antibody, V domains shown)
VH: B1 VH with D30S, S55G, G59S, H106A
VL: B2 VL with S31T, V47L, H55A, N93D, T94S
notes: Group III

optical density [1]: 3.2 OD
optical density (mouse ACVR2A): 3.69 OD
optical density (human ACVR2A [2]): 3.58 OD
B9: 375_E02 (antibody, V domains shown)
VH: B1 VH with D30S, S31D, S55G, G59S, H106A
VL: B2 VL with S31T, V33L, V47L, H55A, D92Y, N93S, T94S
notes: Group III

optical density [1]: 3.31 OD
optical density (mouse ACVR2A): 3.58 OD
optical density (human ACVR2A [2]): 3.5 OD
B10: 375_F08 (antibody, V domains shown)
VH: B1 VH with D30S, S33G, A49S, G50S, T58K, G59S
VL: B2 VL with V33L, V47L, D92Y, N93D, T94N
notes: Group III

optical density [1]: 3.19 OD
optical density (mouse ACVR2A): 3.29 OD
optical density (human ACVR2A [2]): 2.91 OD
B11: 375_G04 (antibody, V domains shown)
VH: B1 VH with D30S, S33G, G50S
VL: B2 VL with L30V, V47L, R54L, H55A, D92Y, N93D, T94S
notes: Group III

optical density [1]: 3.14 OD
optical density (mouse ACVR2A): 3.35 OD
optical density (human ACVR2A [2]): 3.66 OD
B12: 375_A12 (antibody, V domains shown)
VH: B1 VH with D30S, A49S, T58K, G59S, H106A
VL: B2 VL with V33L, A51V, H55A, D92Y, N93E
notes: Group III

optical density [1]: 3.27 OD
optical density (mouse ACVR2A): 3.29 OD
optical density (human ACVR2A [2]): 3.3 OD
B13: 375_H07 (antibody, V domains shown)
VH: B1 VH with D30S, S55G, G59S, H106A
VL: B2 VL with V33L, V47L, R54L, H55A, D92Y, N93S, T94S
notes: Group III

optical density [1]: 3.11 OD
optical density (mouse ACVR2A): 3.64 OD
optical density (human ACVR2A [2]): 3.58 OD
B14: 375_A07 (antibody, V domains shown)
VH: B1 VH with A49S, G50S
VL: B2 VL with S31T, V33L, V47L, H55A, D92Y, N93D
notes: Group III

optical density [1]: 3.26 OD
optical density (mouse ACVR2A): 3.75 OD
optical density (human ACVR2A [2]): 3.71 OD
B15: 375_G05 (antibody, V domains shown)
VH: B1 VH with D30S, S55G, G59S, H106A
VL: B2 VL with L30V, V33L, V47L, A51V, H55A, D92Y, N93D, T94S
notes: Group III

optical density [1]: 3.28 OD
optical density (mouse ACVR2A): 3.71 OD
optical density (human ACVR2A [2]): 3.67 OD
B16: 375_E05 (antibody, V domains shown)
VH: B1 VH with D30S, S55G, G59S, H106A
VL: B2 VL with V33L, R54L, H55A, D92Y, N93S, T94S
notes: Group III

optical density [1]: 3.4 OD
optical density (mouse ACVR2A): 3.65 OD
optical density (human ACVR2A [2]): 3.63 OD
B17: 376_C04 (antibody, V domains shown)
VH: B1 VH with D30S, S33G, A49S, G50N, S55G, H106A
VL: B2 VL with V47L, A51V, D92Y, N93D, T94N
notes: Group III

Source: US20210380703A1 (RIGEL PHARMACEUTICALS, published 2021)
